The text below walks through data of the RNAGym collection of RNA variant scans (doi:10.1021/acssynbio.7b00057).

The labels stand for the following.
B1: Pistol ribozyme (parent)
chain: GGGUCGUUGUUCCAUAAUCGCGUGGAUAUGGCACGCAAGUUUCUACCGGGCACCGUAAAUGUCCGACUGGAGCCGUUCGGGCGGCUAUAAACAGACCUCAGGCCCGAAGCGUGGCGGCACCUGCCGCCGGUGGUAAAAAAGAUCGGAAGAGCACACGUCU

The variants in the series derive from B1. Briefly: aptazyme ON/OFF ratio, guanine; higher = stronger switching; co-transcriptional cleavage with and without guanine.
GGGUCGCGUCCGUAUAAUCGCGUGGAUAUGGCACGCAAGUUUCUACCGGGCACCGUAAAUGUCCGACUGGAGCCGUUCGGGCGGCUAUAAACAGACCUCAGGCCCGAAGCGUGGCGGCACCUGCCGCCGGUGGUAAAAAAGAUCGGAAGAGCACACGUCU: the “aptazyme ON/OFF ratio” value stood at 1.04.

For the variant GGGUCGCGUCCGGAUAAUCGCGUGGAUAUGGCACGCAAGUUUCUACCGGGCACCGUAAAUGUCCGACUGGAGCCGUUCGGGCGGCUAUAAACAGACCUCAGGCCCGAAGCGUGGCGGCACCUGCCGCCGGUGGUAAAAAAGAUCGGAAGAGCACACGUCU, the “aptazyme ON/OFF ratio” value was determined as 1.08.

GGGUCGCGUCCGAAUAAUCGCGUGGAUAUGGCACGCAAGUUUCUACCGGGCACCGUAAAUGUCCGACUGGAGCCGUUCGGGCGGCUAUAAACAGACCUCAGGCCCGAAGCGUGGCGGCACCUGCCGCCGGUGGUAAAAAAGAUCGGAAGAGCACACGUCU: the “aptazyme ON/OFF ratio” value turned out to be 1.13.

In the case of GGGUCGCGUCGGGAUAAUCGCGUGGAUAUGGCACGCAAGUUUCUACCGGGCACCGUAAAUGUCCGACUGGAGCCGUUCGGGCGGCUAUAAACAGACCUCAGGCCCGAAGCGUGGCGGCACCUGCCGCCGGUGGUAAAAAAGAUCGGAAGAGCACACGUCU, the “aptazyme ON/OFF ratio” value was determined as 1.15.

As for GGGUCGCGUCGGUAUAAUCGCGUGGAUAUGGCACGCAAGUUUCUACCGGGCACCGUAAAUGUCCGACUGGAGCCGUUCGGGCGGCUAUAAACAGACCUCAGGCCCGAAGCGUGGCGGCACCUGCCGCCGGUGGUAAAAAAGAUCGGAAGAGCACACGUCU, the “aptazyme ON/OFF ratio” value came to 1.08.

Turning to GGGUCGCGUCGGAAUAAUCGCGUGGAUAUGGCACGCAAGUUUCUACCGGGCACCGUAAAUGUCCGACUGGAGCCGUUCGGGCGGCUAUAAACAGACCUCAGGCCCGAAGCGUGGCGGCACCUGCCGCCGGUGGUAAAAAAGAUCGGAAGAGCACACGUCU, the “aptazyme ON/OFF ratio” value was 1.15.

In the case of GGGUCGCGUCACUAUAAUCGCGUGGAUAUGGCACGCAAGUUUCUACCGGGCACCGUAAAUGUCCGACUGGAGCCGUUCGGGCGGCUAUAAACAGACCUCAGGCCCGAAGCGUGGCGGCACCUGCCGCCGGUGGUAAAAAAGAUCGGAAGAGCACACGUCU, the “aptazyme ON/OFF ratio” value worked out at 1.35.

Regarding GGGUCGCGUGUACAUAAUCGCGUGGAUAUGGCACGCAAGUUUCUACCGGGCACCGUAAAUGUCCGACUGGAGCCGUUCGGGCGGCUAUAAACAGACCUCAGGCCCGAAGCGUGGCGGCACCUGCCGCCGGUGGUAAAAAAGAUCGGAAGAGCACACGUCU, the “aptazyme ON/OFF ratio” value is 1.15.

Turning to GGGUCGCGUCCGCAUAAUCGCGUGGAUAUGGCACGCAAGUUUCUACCGGGCACCGUAAAUGUCCGACUGGAGCCGUUCGGGCGGCUAUAAACAGACCUCAGGCCCGAAGCGUGGCGGCACCUGCCGCCGGUGGUAAAAAAGAUCGGAAGAGCACACGUCU, the “aptazyme ON/OFF ratio” value was 1.07.

Consider GGGUCGCGUCCUCAUAAUCGCGUGGAUAUGGCACGCAAGUUUCUACCGGGCACCGUAAAUGUCCGACUGGAGCCGUUCGGGCGGCUAUAAACAGACCUCAGGCCCGAAGCGUGGCGGCACCUGCCGCCGGUGGUAAAAAAGAUCGGAAGAGCACACGUCU, for which the “aptazyme ON/OFF ratio” value was 1.1.

Consider GGGUCGCGUCCACAUAAUCGCGUGGAUAUGGCACGCAAGUUUCUACCGGGCACCGUAAAUGUCCGACUGGAGCCGUUCGGGCGGCUAUAAACAGACCUCAGGCCCGAAGCGUGGCGGCACCUGCCGCCGGUGGUAAAAAAGAUCGGAAGAGCACACGUCU, for which the “aptazyme ON/OFF ratio” value is 1.07.

For the variant GGGUCGCGUGUCCAUAAUCGCGUGGAUAUGGCACGCAAGUUUCUACCGGGCACCGUAAAUGUCCGACUGGAGCCGUUCGGGCGGCUAUAAACAGACCUCAGGCCCGAAGCGUGGCGGCACCUGCCGCCGGUGGUAAAAAAGAUCGGAAGAGCACACGUCU, the “aptazyme ON/OFF ratio” value was determined as 1.28.

Turning to GGGUCGCGUCGAAAUAAUCGCGUGGAUAUGGCACGCAAGUUUCUACCGGGCACCGUAAAUGUCCGACUGGAGCCGUUCGGGCGGCUAUAAACAGACCUCAGGCCCGAAGCGUGGCGGCACCUGCCGCCGGUGGUAAAAAAGAUCGGAAGAGCACACGUCU, the “aptazyme ON/OFF ratio” value turned out to be 1.1.

On to GGGUCGCGUCGAUAUAAUCGCGUGGAUAUGGCACGCAAGUUUCUACCGGGCACCGUAAAUGUCCGACUGGAGCCGUUCGGGCGGCUAUAAACAGACCUCAGGCCCGAAGCGUGGCGGCACCUGCCGCCGGUGGUAAAAAAGAUCGGAAGAGCACACGUCU, for which the “aptazyme ON/OFF ratio” value came to 1.22.

In the case of GGGUCGCGUCGAGAUAAUCGCGUGGAUAUGGCACGCAAGUUUCUACCGGGCACCGUAAAUGUCCGACUGGAGCCGUUCGGGCGGCUAUAAACAGACCUCAGGCCCGAAGCGUGGCGGCACCUGCCGCCGGUGGUAAAAAAGAUCGGAAGAGCACACGUCU, the “aptazyme ON/OFF ratio” value came to 1.13.

For GGGUCGCGUCCCCAUAAUCGCGUGGAUAUGGCACGCAAGUUUCUACCGGGCACCGUAAAUGUCCGACUGGAGCCGUUCGGGCGGCUAUAAACAGACCUCAGGCCCGAAGCGUGGCGGCACCUGCCGCCGGUGGUAAAAAAGAUCGGAAGAGCACACGUCU, the “aptazyme ON/OFF ratio” value was 1.06.

Take GGGUCGCGUCGCCAUAAUCGCGUGGAUAUGGCACGCAAGUUUCUACCGGGCACCGUAAAUGUCCGACUGGAGCCGUUCGGGCGGCUAUAAACAGACCUCAGGCCCGAAGCGUGGCGGCACCUGCCGCCGGUGGUAAAAAAGAUCGGAAGAGCACACGUCU: the “aptazyme ON/OFF ratio” value amounted to 1.23.

Turning to GGGUCGCGUCGUUAUAAUCGCGUGGAUAUGGCACGCAAGUUUCUACCGGGCACCGUAAAUGUCCGACUGGAGCCGUUCGGGCGGCUAUAAACAGACCUCAGGCCCGAAGCGUGGCGGCACCUGCCGCCGGUGGUAAAAAAGAUCGGAAGAGCACACGUCU, the “aptazyme ON/OFF ratio” value came out at 1.41.

Consider GGGUCGCGUCGUGAUAAUCGCGUGGAUAUGGCACGCAAGUUUCUACCGGGCACCGUAAAUGUCCGACUGGAGCCGUUCGGGCGGCUAUAAACAGACCUCAGGCCCGAAGCGUGGCGGCACCUGCCGCCGGUGGUAAAAAAGAUCGGAAGAGCACACGUCU, for which the “aptazyme ON/OFF ratio” value was 1.22.

On to GGGUCGCGUCGUAAUAAUCGCGUGGAUAUGGCACGCAAGUUUCUACCGGGCACCGUAAAUGUCCGACUGGAGCCGUUCGGGCGGCUAUAAACAGACCUCAGGCCCGAAGCGUGGCGGCACCUGCCGCCGGUGGUAAAAAAGAUCGGAAGAGCACACGUCU, for which the “aptazyme ON/OFF ratio” value came to 1.24.

As to GGGUCGCGUGUAAAUAAUCGCGUGGAUAUGGCACGCAAGUUUCUACCGGGCACCGUAAAUGUCCGACUGGAGCCGUUCGGGCGGCUAUAAACAGACCUCAGGCCCGAAGCGUGGCGGCACCUGCCGCCGGUGGUAAAAAAGAUCGGAAGAGCACACGUCU, the “aptazyme ON/OFF ratio” value worked out at 1.12.

On to GGGUCGCGUCCUGAUAAUCGCGUGGAUAUGGCACGCAAGUUUCUACCGGGCACCGUAAAUGUCCGACUGGAGCCGUUCGGGCGGCUAUAAACAGACCUCAGGCCCGAAGCGUGGCGGCACCUGCCGCCGGUGGUAAAAAAGAUCGGAAGAGCACACGUCU, for which the “aptazyme ON/OFF ratio” value came out at 1.05.

Regarding GGGUCGCGUCCUUAUAAUCGCGUGGAUAUGGCACGCAAGUUUCUACCGGGCACCGUAAAUGUCCGACUGGAGCCGUUCGGGCGGCUAUAAACAGACCUCAGGCCCGAAGCGUGGCGGCACCUGCCGCCGGUGGUAAAAAAGAUCGGAAGAGCACACGUCU, the “aptazyme ON/OFF ratio” value turned out to be 1.09.

Turning to GGGUCGCGUCCUAAUAAUCGCGUGGAUAUGGCACGCAAGUUUCUACCGGGCACCGUAAAUGUCCGACUGGAGCCGUUCGGGCGGCUAUAAACAGACCUCAGGCCCGAAGCGUGGCGGCACCUGCCGCCGGUGGUAAAAAAGAUCGGAAGAGCACACGUCU, the “aptazyme ON/OFF ratio” value worked out at 1.05.

For the variant GGGUCGCGUCCAAAUAAUCGCGUGGAUAUGGCACGCAAGUUUCUACCGGGCACCGUAAAUGUCCGACUGGAGCCGUUCGGGCGGCUAUAAACAGACCUCAGGCCCGAAGCGUGGCGGCACCUGCCGCCGGUGGUAAAAAAGAUCGGAAGAGCACACGUCU, the “aptazyme ON/OFF ratio” value is 1.06.

Turning to GGGUCGCGUCCAUAUAAUCGCGUGGAUAUGGCACGCAAGUUUCUACCGGGCACCGUAAAUGUCCGACUGGAGCCGUUCGGGCGGCUAUAAACAGACCUCAGGCCCGAAGCGUGGCGGCACCUGCCGCCGGUGGUAAAAAAGAUCGGAAGAGCACACGUCU, the “aptazyme ON/OFF ratio” value was 1.18.

As for GGGUCGCGUCCAGAUAAUCGCGUGGAUAUGGCACGCAAGUUUCUACCGGGCACCGUAAAUGUCCGACUGGAGCCGUUCGGGCGGCUAUAAACAGACCUCAGGCCCGAAGCGUGGCGGCACCUGCCGCCGGUGGUAAAAAAGAUCGGAAGAGCACACGUCU, the “aptazyme ON/OFF ratio” value stood at 1.19.

With GGGUCGCGUCGCGAUAAUCGCGUGGAUAUGGCACGCAAGUUUCUACCGGGCACCGUAAAUGUCCGACUGGAGCCGUUCGGGCGGCUAUAAACAGACCUCAGGCCCGAAGCGUGGCGGCACCUGCCGCCGGUGGUAAAAAAGAUCGGAAGAGCACACGUCU, the “aptazyme ON/OFF ratio” value is 1.03.

Turning to GGGUCGCGUCGCAAUAAUCGCGUGGAUAUGGCACGCAAGUUUCUACCGGGCACCGUAAAUGUCCGACUGGAGCCGUUCGGGCGGCUAUAAACAGACCUCAGGCCCGAAGCGUGGCGGCACCUGCCGCCGGUGGUAAAAAAGAUCGGAAGAGCACACGUCU, the “aptazyme ON/OFF ratio” value was 1.19.

As to GGGUCGCGUCGCUAUAAUCGCGUGGAUAUGGCACGCAAGUUUCUACCGGGCACCGUAAAUGUCCGACUGGAGCCGUUCGGGCGGCUAUAAACAGACCUCAGGCCCGAAGCGUGGCGGCACCUGCCGCCGGUGGUAAAAAAGAUCGGAAGAGCACACGUCU, the “aptazyme ON/OFF ratio” value turned out to be 1.19.

Regarding GGGUCGCGUCGACAUAAUCGCGUGGAUAUGGCACGCAAGUUUCUACCGGGCACCGUAAAUGUCCGACUGGAGCCGUUCGGGCGGCUAUAAACAGACCUCAGGCCCGAAGCGUGGCGGCACCUGCCGCCGGUGGUAAAAAAGAUCGGAAGAGCACACGUCU, the “aptazyme ON/OFF ratio” value worked out at 1.14.

On to GGGUCGCGUCGGCAUAAUCGCGUGGAUAUGGCACGCAAGUUUCUACCGGGCACCGUAAAUGUCCGACUGGAGCCGUUCGGGCGGCUAUAAACAGACCUCAGGCCCGAAGCGUGGCGGCACCUGCCGCCGGUGGUAAAAAAGAUCGGAAGAGCACACGUCU, for which the “aptazyme ON/OFF ratio” value was determined as 1.21.

GGGUCGCGUCGUCAUAAUCGCGUGGAUAUGGCACGCAAGUUUCUACCGGGCACCGUAAAUGUCCGACUGGAGCCGUUCGGGCGGCUAUAAACAGACCUCAGGCCCGAAGCGUGGCGGCACCUGCCGCCGGUGGUAAAAAAGAUCGGAAGAGCACACGUCU: the “aptazyme ON/OFF ratio” value turned out to be 1.28.

For the variant GGGUCGCGUCCCUAUAAUCGCGUGGAUAUGGCACGCAAGUUUCUACCGGGCACCGUAAAUGUCCGACUGGAGCCGUUCGGGCGGCUAUAAACAGACCUCAGGCCCGAAGCGUGGCGGCACCUGCCGCCGGUGGUAAAAAAGAUCGGAAGAGCACACGUCU, the “aptazyme ON/OFF ratio” value came to 1.03.

GGGUCGCGUCCCAAUAAUCGCGUGGAUAUGGCACGCAAGUUUCUACCGGGCACCGUAAAUGUCCGACUGGAGCCGUUCGGGCGGCUAUAAACAGACCUCAGGCCCGAAGCGUGGCGGCACCUGCCGCCGGUGGUAAAAAAGAUCGGAAGAGCACACGUCU: the “aptazyme ON/OFF ratio” value turned out to be 1.03.

GGGUCGCGUCCCGAUAAUCGCGUGGAUAUGGCACGCAAGUUUCUACCGGGCACCGUAAAUGUCCGACUGGAGCCGUUCGGGCGGCUAUAAACAGACCUCAGGCCCGAAGCGUGGCGGCACCUGCCGCCGGUGGUAAAAAAGAUCGGAAGAGCACACGUCU: the “aptazyme ON/OFF ratio” value turned out to be 1.05.
